Reference: the supplement of paper PMC10126150
± gives the standard deviation of the averaged measurements.

The sequences below were run on ATP (assay: switch fluorescence ratio, 500 uM ATP over buffer (Cy3 cluster intensity, sum of 5 cycles each) (fold (ratio)); higher = stronger signal-on switching upon ATP binding; sequences stand for … in TCGTCGGCAGCGTCAGATGTGTATAAGAGACAGTTTTTTTTTTTTTTTTTTTTTTTTT…TC). Settings: aptamer strand: ATP DNA aptamer (quencher-CACCTGGGGGAGTATTGCGGAGGAAGG + anchor), 100 nM annealed; ATP concentration: 500 uM.
Procedure, shortened: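 For every switch-domain sequence, the fluorescence ratio is the mean of per-cluster values, each being summed target-cycle Cy3 intensity over summed buffer-cycle Cy3 intensity. Clusters outside 100-1000 RFU were excluded. On a modified Illumina MiSeq flow-cell, the Cy3-labelled switching-strand clusters were annealed to 100 nM quencher-labelled ATP aptamer, imaged in selection buffer and then after 15 min with 500 uM ATP at 22 °C. Five such cycles were run, with NaOH stripping and re-annealing between them.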
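Also: ATP exposure 15 min at 22 °C before imaging.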

Sequence | switch fluorescence ratio
TCCCGATTTC | 1.07 ± 0.024
AGCAGGGCTG | 0.99566 ± 0.00073
AATATATTGA | 0.996 ± 0.02
CAATGTCGTT | 0.985 ± 0.047
TAGCTACTTC | 1.73 ± 0.93
AAGGTTATGC | 0.987 ± 0.039
CTTAGGGGGT | 1 ± 0.018
TTTGCCGGGA | 1.01 ± 0.019
TTGGGTTCGG | 0.987 ± 0.038
TTTCAGTCCC | 0.993 ± 0.052
TGAGTCTGTT | 1.01 ± 0.028
GACAATTAGT | 1.04 ± 0.0079
AAGGGGGTTA | 0.991 ± 0.025
TTCGGCACGT | 1.01 ± 0.021
TTTTGTGTTC | 0.993 ± 0.027
ACCGGGATGG | 0.994 ± 0.024
TAGTAGTCAA | 1.03 ± 0.011
GCTATTTACT | 1.06 ± 0.076
CACAACGGTG | 1.04 ± 0.033
TCGGGTTAGG | 0.998 ± 0.032
AGCTTTAGTT | 1.008 ± 0.0019
TATTATGGCG | 1.04 ± 0.014
GTATTATTAA | 1.05 ± 0.0015
TTGATTGGGC | 0.989 ± 0.025
AATCGAAAGA | 1.02 ± 0.039

Sequence | switch fluorescence ratio
TGGATTGTTT | 0.994 ± 0.03
CGTATCCGTA | 0.987 ± 0.042
AGCAATAGGT | 1.94 ± 0.46
AGGGAAAAAG | 1.02 ± 0.045
CATGATAGCG | 0.9981 ± 0.0019
GGTGGCAGGA | 1.01 ± 0.032
TTTGAACGCT | 1.06 ± 0.015
TGTTTTTTAG | 1.01 ± 0.024
CGGGGGTCTA | 1.01 ± 0.045
GGTTTGCGGG | 1.01 ± 0.0095
TGAGGAGGTT | 0.981 ± 0.072
AGCGGGGATA | 1.05 ± 0.024
GAATTTGGGT | 0.98 ± 0.034
AGCTCTGCTA | 1.02 ± 0.02
CGCGGGAGAG | 1.02 ± 0.04
ATTTGTGATG | 0.994 ± 0.047
GGGTATCCTC | 0.986 ± 0.037
GCGGGGGGTG | 1.01 ± 0.03
CCCCGAGCCG | 1.02 ± 0.06
GGGCACATGG | 1.02 ± 0.029
TAGCCGTCTA | 1.058 ± 0.0034
AACTTCAGCT | 0.995 ± 0.03
TCCTGGGGGG | 1.04 ± 0.046
TGGTTGAATA | 0.998 ± 0.05
TTTTGGATAA | 1.016 ± 0.0051

Sequence | switch fluorescence ratio
TAGCATTCTA | 1.013 ± 0.0054
GGGTAAGCTG | 1.04 ± 0.081
CATAGGGTTC | 0.9954 ± 0.0089
AAGTGGGGGT | 1 ± 0.039
GGGACCAATT | 1 ± 0.022
CCAGCGTGCT | 1.11 ± 0.08
GGTGGAAGAG | 0.982 ± 0.036
TTCATAGGCA | 1 ± 0.039
AATGTTACGG | 1.061 ± 0.0098
GGTGTGCACC | 1 ± 0.025
TTGGGTGTGC | 1.02 ± 0.061
AATTTGCCGT | 1.04 ± 0.042
GAGTGATGGC | 1.03 ± 0.014
TCGTTTGGAA | 1 ± 0.025
CAAGTCAAGA | 1.0299 ± 0.00028
TTTACTATTT | 0.988 ± 0.035
TGCTGGAGGA | 1.038 ± 0.006
AGACTCACTG | 1.09 ± 0.011
AAATACGTAT | 1.04 ± 0.046
ACATGAGCGG | 0.971 ± 0.019
TTCGTTCTTG | 0.9641 ± 0.0076
TTGGTATACG | 0.997 ± 0.026
CTTTTCTGAT | 0.993 ± 0.04
CAAATTTAAG | 0.982 ± 0.028
TACTTTTTAT | 1.01 ± 0.018

Sequence | switch fluorescence ratio
CGTTGGGGAG | 1.02 ± 0.03
TTTGTGTTGT | 1.015 ± 0.0099
TTTTTTTAAC | 0.999 ± 0.032
TTGACGAGGT | 1.07 ± 0.078
AGTGGGGATC | 1.03 ± 0.035
TCGTTACGGG | 1.17 ± 0.26
AACTGAGAAG | 0.988 ± 0.015
GGGGAGGGGA | 1.01 ± 0.04
TACGAATAAT | 1.1 ± 0.075
TTGGGCGCGG | 1 ± 0.031
CGTGGGGAAG | 0.998 ± 0.023
TGTCGTGTTT | 0.9679 ± 0.0014
AAAAAGAAGA | 0.976 ± 0.033
AAGTCGAAGT | 0.98568 ± 0.00082
ATAGTTAAAC | 1.01 ± 0.012
TTACGTGGGA | 1.02 ± 0.026
GGGATTAAGA | 0.98 ± 0.026
AACGCTCGTC | 1.02 ± 0.06
CGTAACTGGT | 0.978 ± 0.018
ATCATGTCTA | 1.04 ± 0.047
GAATTGGGTA | 0.957 ± 0.014
TGGGGATCGA | 1.04 ± 0.011
CGTGAGTACG | 0.992 ± 0.01
AATGACGATG | 1.02 ± 0.029
GGTGGAAGCT | 1.01 ± 0.025

Sequence | switch fluorescence ratio
TTAGAAGATT | 1 ± 0.044
AAAAAAAGGC | 0.998 ± 0.042
GCTTGTACAT | 0.982 ± 0.018
ACTGTTTGTC | 0.9897 ± 0.0061
TAAGGGGATA | 1.06 ± 0.11
TGCAAAAGGC | 0.972 ± 0.013
TAAAACTTTT | 1.02 ± 0.043
GAGTGTCGGC | 0.9963 ± 0.0052
TGCCGTCGGC | 0.949 ± 0.06
CCAGCACCTC | 1.45 ± 0.039
ATTTATATAT | 1 ± 0.05
TGGGATGTTC | 0.989 ± 0.031
GGAAGGAGAG | 0.986 ± 0.018
GTTTGGGTCT | 0.997 ± 0.013
GCATTGAGGT | 1 ± 0.013
GAGGAGCTAA | 1.006 ± 0.0034
GTTCGGGGTG | 0.978 ± 0.003
GCCGGTACAA | 1.01 ± 0.073
AGTGGGGGTC | 1.02 ± 0.021
CGAGGGGCCC | 1.01 ± 0.036
TTGAGTGGGC | 0.979 ± 0.031
CATCGGATTT | 0.972 ± 0.01
TGGTATATT | 0.986 ± 0.027
GCAGTAGTGG | 1.2 ± 0.33
AGTAGTAAGC | 1.03 ± 0.023

Sequence | switch fluorescence ratio
TTTTTTGGGC | 0.99 ± 0.068
ACGACCGTTG | 1.02 ± 0.061
GCAGTTTTGG | 0.992 ± 0.015
CCAAGGAGAC | 1.35 ± 0.052
AGAGTGCTTC | 0.999 ± 0.028
GGATGCATAT | 0.9894 ± 0.0044
AAAAGGACGG | 1.044 ± 0.0036
GGCCCGGTTT | 0.99 ± 0.029
TCTGGTTGGA | 1.04 ± 0.025
CAAGAATCTG | 0.9606 ± 0.0091
TGCTCCAGTC | 1.094 ± 0.0067
GGGGGTGAGG | 1.01 ± 0.043
TATGGACA | 1.05 ± 0.01
TTAGGAATGG | 1.005 ± 0.0015
CATGGTGTTA | 1.01 ± 0.025
GCCGGGGCAA | 1.33 ± 0.024
GGGAAAGTCG | 1 ± 0.036
AGGATTGGTT | 1 ± 0.025
GTGAAGAAGA | 0.991 ± 0.0048
ATTCAACGGG | 1.04 ± 0.013
TGTAGACTGA | 1.01 ± 0.011
GTTAATTTGC | 0.984 ± 0.04
CTCGAAAAAA | 1.05 ± 0.014
TAGAGGGGG | 1.01 ± 0.014
TCCAGGAGTG | 1.15 ± 0.019

Sequence | switch fluorescence ratio
CTGGGCGGGG | 1.01 ± 0.026
GGTAAGGGCC | 1.01 ± 0.034
GATAGGGCGC | 1.02 ± 0.026
GCGGGAATGG | 1.02 ± 0.0037
GGTCAGGCGA | 0.989 ± 0.016
GAAATTTTCC | 1.35 ± 0.077
GTGCTAGGGT | 0.988 ± 0.02
CGGGAGGGTT | 1 ± 0.02
AAATGGGGAC | 0.9777 ± 0.0029
GGAAGGAGGC | 1.02 ± 0.088
TTTTTGTTC | 0.99 ± 0.023
GGTTATATAG | 1.01 ± 0.016
CCTCGGACTT | 1.57 ± 0.48
GTGAGAGGTG | 1.05 ± 0.052
TACAGCGCGT | 1.01 ± 0.021
GAATGACGGA | 1.02 ± 0.057
TGGGCGAAGG | 0.9702 ± 0.0071
TTATGGAGCA | 1.09 ± 0.09
TGTTAGTCTT | 0.969 ± 0.057
AAGTCGATTG | 0.99 ± 0.017
TTGGGGAACA | 1.014 ± 0.008
ATTCGTCGTC | 0.983 ± 0.077
TTTACGGAGC | 1.37 ± 0.075
AAGTCGTCCG | 0.985 ± 0.044
TTCAGCGATG | 1.024 ± 0.0081

Sequence | switch fluorescence ratio
GTAGCGGCTG | 1.037 ± 0.01
AGTTGTGTAT | 1.01 ± 0.051
AACAGGGCGG | 1.01 ± 0.015
GGGCATGTTG | 1.02 ± 0.03
TTTAGTGCTT | 0.997 ± 0.03
TGATCCCGGG | 0.93018 ± 0.00028
TTTCCGACGG | 1.57 ± 0.79
GTGAGAAAGG | 0.982 ± 0.015
ACTGTAGTCT | 1.06 ± 0.012
AAAAGGGGGT | 1.02 ± 0.049
ACAGGCTGCG | 0.995 ± 0.024
ACATCATAGC | 1.048 ± 0.0076
TTAGCTACTG | 1.03 ± 0.056
TTTGGGTCTC | 0.998 ± 0.019
AGGGGAGGCT | 0.997 ± 0.045
TGATTTGAAG | 0.9464 ± 0.007
GAATGACAGT | 0.978 ± 0.018
ATTCGGTTTT | 0.97 ± 0.013
CGTATCATTG | 0.997 ± 0.042
AATGAACTAG | 1.01 ± 0.053
GTCGTCAAGT | 1.006 ± 0.0073
GGGGGTTCAG | 0.978 ± 0.04
GCATGTGGCT | 0.994 ± 0.024
AGGACTTGAA | 1.02 ± 0.035
TCCGAAGGGT | 0.991 ± 0.045
